Test results published in patent US6531312.

T1: GST-Cdc25C, P30307
T1 chain: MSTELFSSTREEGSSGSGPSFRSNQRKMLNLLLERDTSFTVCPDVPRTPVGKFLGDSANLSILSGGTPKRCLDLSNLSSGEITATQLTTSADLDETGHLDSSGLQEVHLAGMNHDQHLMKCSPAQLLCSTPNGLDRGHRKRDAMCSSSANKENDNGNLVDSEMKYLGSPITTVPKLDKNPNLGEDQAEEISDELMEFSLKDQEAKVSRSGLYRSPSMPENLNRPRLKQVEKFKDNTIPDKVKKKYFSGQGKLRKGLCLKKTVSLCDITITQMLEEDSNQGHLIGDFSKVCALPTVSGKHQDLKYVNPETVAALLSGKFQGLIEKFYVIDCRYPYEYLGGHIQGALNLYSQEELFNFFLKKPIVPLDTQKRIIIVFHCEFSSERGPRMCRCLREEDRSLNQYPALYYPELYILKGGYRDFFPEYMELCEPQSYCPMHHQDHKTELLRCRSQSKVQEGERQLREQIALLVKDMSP


Columns and labels:
GST-Cdc25C, P30307 = target: T1, GST-Cdc25C, P30307

Sequence of 6his-Cdc2, P06493 (P06493 whole entry, looked up): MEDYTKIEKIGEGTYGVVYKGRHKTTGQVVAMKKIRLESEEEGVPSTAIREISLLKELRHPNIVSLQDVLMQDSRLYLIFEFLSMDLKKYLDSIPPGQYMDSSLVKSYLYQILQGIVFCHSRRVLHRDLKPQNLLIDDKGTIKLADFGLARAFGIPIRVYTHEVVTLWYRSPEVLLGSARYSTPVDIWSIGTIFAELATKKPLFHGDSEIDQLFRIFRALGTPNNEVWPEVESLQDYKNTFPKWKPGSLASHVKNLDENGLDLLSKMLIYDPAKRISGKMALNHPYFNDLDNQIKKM

Protein | dephosphorylation of Cdc2 (gel-mobility analysis) (6his-Cdc2, P06493) | GST-Cdc25 phosphatase activity (loss of slower migrating phosphorylated forms of Cdc2 on gel) (GST-Cdc25C, P30307) | phosphorylation of GST-Cdc25 (32P ATP, SDS-PAGE, autoradiography) (GST-Cdc25C, P30307)
GST-Cdc25C (protein) MSTELFSSTREEGSSGSGPSFRSNQRKMLNLLLERDTSFTVCPDVPRTPVGKFLGDSANLSILSGGTPKRCLDLSNLSSGEITATQLTTSADLDETGHLDSSGLQEVHLAGMNHDQHLMKCSPAQLLCSTPNGLDRGHRKRDAMCSSSANKENDNGNLVDSEMKYLGSPITTVPKLDKNPNLGEDQAEEISDELMEFSLKDQEAKVSRSGLYRSPSMPENLNRPRLKQVEKFKDNTIPDKVKKKYFSGQGKLRKGLCLKKTVSLCDITITQMLEEDSNQGHLIGDFSKVCALPTVSGKHQDLKYVNPETVAALLSGKFQGLIEKFYVIDCRYPYEYLGGHIQGALNLYSQEELFNFFLKKPIVPLDTQKRIIIVFHCEFSSERGPRMCRCLREEDRSLNQYPALYYPELYILKGGYRDFFPEYMELCEPQSYCPMHHQDHKTELLRCRSQSKVQEGERQLREQIALLVKDMSP | GST-Cdc25 catalyses a reduction in the slower migrating phosphorylated forms of Cdc2 |  | 
6his-Chk1 (protein) MAVPFVEDWDLVQTLGEGAYGEVQLAVNRVTEEAVAVKIVDMKRAVDCPENIKKEICINKMLNHENVVKFYGHRREGNIQYLFLEYCSGGELFDRIEPDIGMPEPDAQRFFHQLMAGVVYLHGIGITHRDIKPENLLLDERDNLKISDFGLATVFRYNNRERLLNKMCGTLPYVAPELLKRREFHAEPVDVWSCGIVLTAMLAGELPWDQPSDSCQEYSDWKEKKTYLNPWKKIDSAPLALLHKILVENPSARITIPDIKKDRWYNKPLKKGAKRPRVTSGGVSESPSGFSKHIQSNLDFSPVNSASSEENVKYSSSQPEPRTGLSLWDTSPSYIDKLVQGISFSQPTCPDHMLLNSQLLGTPGSSQNPWQRLVKRMTRFFTKLDADKSYQCLKETCEKLGYQWKKSCMNQVTISTTDRRNNKLIFKVNLLEMDDKILVDFRLSKGDGLEFKRHFLKIKGKLIDIVSSQKIWLPAT |  | Prior phosphorylation of GST-Cdc25 by 6his-Chk1 leads to a dosedependent reduction in GST-Cdc25 activity | GST-Cdc25 was phosphorylated by 6his-Chk1 and by 6his-hCDS1
